Self-cleavage data for 64 variants are collected here from the RNAGym collection of RNA variant scans (doi:10.7554/elife.80360).

B1: HDV Ribozyme (parent)
chain: GGCCGGCAUGGUCCCAGCCUCCUCGCUGGCGCCGGCUGGGCAACAUUCCGAGGGGACCGUCCCCUCGGUAAUGGCGAAUGGGACCCA

This series covers variants of B1. Description: self-cleavage, relative activity (ratio to wild type); higher = more cleavage; co-transcriptional.
As for GGCCGACAUGGUCCCAGCCUCCUCGCUGGCGCCGGCUGGGCAACAGUCCGAGGGGACCGUCCCCUCGGUAAUGGCGAAUGGGACCCA [G6A U46G], the self-cleavage was 0.229.

For GGCCGGCAUGGUCCCAGCCUCCUCGCUGGCGCCGGCUGGGCAACAUUCCGACGGGACUGUCCCCUCGGUAAUGGCGAAUGGGACCCA [G52C C58U], the self-cleavage was found to be 1.24. Next, GGCCGGCAUGGUCCCAGUCUCCUCACUGGCGCCGGCUGGGCAACAUUCCGAGGGGACCGUCCCCUCGGUAAUGGCGAAUGGGACCCA [C18U G25A]: 0.104; GGCCCGCAUGGUCCCAGCCUCCUCGCUGGCGCCGGCUGGGCAACAUUCCGAGGGGACGGUCCCCUCGGUAAUGGCGAAUGGGACCCA [G5C C58G]: 0.378. Under GGCCGGCAUGGUCCCAGCCUCCGCGUUGGCGCCGGCUGGGCAACAUUCCGAGGGGACCGUCCCCUCGGUAAUGGCGAAUGGGACCCA [U23G C26U] stands 0.997; under GGCCCGCAUGGUCCCAGCCUCCUCGCUGGCGCCGGCUGGGCAACAUUCCGCGGGGACCGUCCCCUCGGUAAUGGCGAAUGGGACCCA [G5C A51C], 0.293.

Consider GGCCGGCAUGGUCCCAGCCUCCUCGCUGGCGCCGGCUGGGCAACAUUCCGAGGGGACCGUCCCCUCGGUAAUGCCGAAUGCGACCCA [G74C G81C], for which the self-cleavage was determined as 0.196.

For GGCCGGCACGGUCCCAGCCUCCUCGCUGGCGCCGGCUGGGCAACAUUCCGAGGGGACCGUCCCCUCGGUAAGGGCGAAUGGGACCCA [U9C U72G], the self-cleavage stood at 0.582. Under GGCCGGCAUGGUCCCAGCCUCCUCGCUGGUGCCGGCUGGGCAACAUUCCGAGGGGACCGUCCCCGCGGUAAUGGCGAAUGGGACCCA [C30U U65G] stands 0.506; under GGCCGGCAUGGUCCCAGCCUCCUCGCUGGCGCCGUCUGGGCAACAUUCCGAGGGGAGCGUCCCCUCGGUAAUGGCGAAUGGGACCCA [G35U C57G], 0.415; under GGCCGGCAUGGUCCUAACCUCCUCGCUGGCGCCGGCUGGGCAACAUUCCGAGGGGACCGUCCCCUCGGUAAUGGCGAAUGGGACCCA [C15U G17A], 0.604. Under GGCCGGCAUGGUCCCAGCCUCCUCGCUGGCGCCGGCUGGGCAACAUUCCGAGGGGACCGUCCCCUCGGUUAUGGGGAAUGGGACCCA [A70U C75G] stands 0.231; under GCCCGGCAUGGUCCCAGCCUCCUCGCUGGCGCCGGCUGGGCAACAUUCCGAGGGGACCGUCCCCUCGGUAGUGGCGAAUGGGACCCA [G2C A71G], 0.021.

For GGCCGGCAUGGUCCCAGCCUCCUCGCUGGCGCCUGCUGGGCAACAUUCCGAGGGGACCGUCCCCUCGGUAAUGGCGCAUGGGACCCA [G34U A77C], the self-cleavage was determined as 0.0678. Under GGCCGGCAUGGUCCCAGCCUCCUCGCUGGUGCCGGCUGGGCAACAUUCCGAGCGGACCGUCCCCUCGGUAAUGGCGAAUGGGACCCA [C30U G53C] stands 0.554; under GGCCGGCAUGGUCCCAGACUCCUCGCUGGCGCCGGCUGGGCAACAUUCCGAGGGGACCGUCCCCUCGGUAAUGGCGAAUUGGACCCA [C18A G80U], 0.051; under GGCCGGCAUGGUGCCAGCCUCCUCGCUGGCGCCGGCUGGGCAACAUUCCCAGGGGACCGUCCCCUCGGUAAUGGCGAAUGGGACCCA [C13G G50C], 0.0594. Under GGCCGGCAUGGUCCCAGCCUCCUCGCUGGCGCCGGCUGGGCAACAUUCCGAGGGGACCGUCCCCUCGGUAAGGGCGAAUGGGAGCCA [U72G C84G] stands 0.214. GGCCGGCAUGGUCCCAGCCUCCUCGCUGGCGCCGACUGGGCAACAUGCCGAGGGGACCGUCCCCUCGGUAAUGGCGAAUGGGACCCA [G35A U47G]: the self-cleavage turned out to be 0.443. Under GGCCGGCAUGGUCCCAGCCACCUCGCUGGCGCCGGCUGGGCAACAUUCCGAGGGGACCGUCCCCUCGGUAAUGGCGAAUGGGAGCCA [U20A C84G] stands 0.196; under GGCCUGCAUGGUCCCAGCCUCCUCGCUGGCGCCGGCUGGGCAACAUUCCGAGGGGACCGUCCCCUCGGUAAUGGCGAAUGGGACCAA [G5U C86A], 0.755; under GGCCGGCAUGGUCCCAGCCCCCUCGAUGGCGCCGGCUGGGCAACAUUCCGAGGGGACCGUCCCCUCGGUAAUGGCGAAUGGGACCCA [U20C C26A], 0.104. Under GGCCGGCAUGGUCCCAGCCUCCUCGCUGGCGCCGGCUGGGCAACACUCCGAGGGGACCGUCCCCUCGGUAAUGGCGAAUUGGACCCA [U46C G80U] stands 0.0903. GGCCGGCAUGGUCCCAGCCUCCACGCUGGCGCCGGCUCGGCAACAUUCCGAGGGGACCGUCCCCUCGGUAAUGGCGAAUGGGACCCA [U23A G38C]: the self-cleavage amounted to 0.192. GGCCGUCAUGGUCCCAGCCUCCUCGCUGGCGCCGGCUGGGCAACAUUCCGAGGGGACCGUCCCCUCGGUAAUGGCGAAUGGGCCCCA [G6U A83C]: the self-cleavage is 0.0852. Under GGCCGGCAUGGUCCCAGCCUCCUCGCUGGCGCCGGGUGGGCCACAUUCCGAGGGGACCGUCCCCUCGGUAAUGGCGAAUGGGACCCA [C36G A42C] stands 0.0811. Next, GGCCGGCAUGGUCCCAGCCUCCUCGCUGGCGCCGGCUGAGCAACAUUCCGUGGGGACCGUCCCCUCGGUAAUGGCGAAUGGGACCCA [G39A A51U]: 0.521. Under GGCCGGCAUGGUUCCAGCCUCCUCGCUGGCGCCGGCUGGGCAACAUUCCGAGUGGACCGUCCCCUCGGUAAUGGCGAAUGGGACCCA [C13U G53U] stands 0.671. As to GGCCGGCAUGGUCCCAGACUCUUCGCUGGCGCCGGCUGGGCAACAUUCCGAGGGGACCGUCCCCUCGGUAAUGGCGAAUGGGACCCA [C18A C22U], the self-cleavage was 0.0378. Under GGCCGGCAUGGUCCCAGCCGCCUCGCUGGCGCCGGCUGGGCAACAUUCCGAGGGGACCGUCCCCUCGGUAAUGGCAAAUGGGACCCA [U20G G76A] stands 0.214; under GGCCGGCAUGGUCCCAGCCUCCUCGCUGGCGCCGGCUGGGCAACAUGCCGAGGGGACCGUCCCCUCGGUAAUGGCGACUGGGACCCA [U47G A78C], 0.185. Next, GGCAGGCAUGGUCCCAGCCUCCUCGCUGGCGCCGGCUGGGCAACAUUCCGAGGAGACCGUCCCCUCGGUAAUGGCGAAUGGGACCCA [C4A G54A]: 0.268; GGCCGGCAUGGUCCCAGCCUCCUCGCUGGCGCCGGCUGGGCAACAUUCCGAGGGGACCGUCCCCUCGGUAAAGGCGAAUGUGACCCA [U72A G81U]: 0.166; GGCCGGCAUGGUCCCAGCCUCCUCACUGGCGCCGGCUGGGCAACAUUCCGAGGGGACCGUCCCCUCGAUAAUGGCGAAUGGGACCCA [G25A G68A]: 0.179. Under GGCCGUCAUGGUCCAAGCCUCCUCGCUGGCGCCGGCUGGGCAACAUUCCGAGGGGACCGUCCCCUCGGUAAUGGCGAAUGGGACCCA [G6U C15A] stands 0; under GGCCGGCAUGGUCCCAGCCUCCUCGCUGGCGCCUGCUGGGCAACGUUCCGAGGGGACCGUCCCCUCGGUAAUGGCGAAUGGGACCCA [G34U A45G], 0.0652; under GGCCGGCAUGGUCCCAGCCUCCUCGCUGGCGCCGGCUGGGCAACAUUCCGAGGGGACCGGCCCCUCGGUAAUGUCGAAUGGGACCCA [U60G G74U], 0.665. For the variant GGCCGGCAUGGUCCCAGCCUCCUCGCUGUCGCCGGCUGGGCAACAUUCCGAGGGCACCGUCCCCUCGGUAAUGGCGAAUGGGACCCA [G29U G55C], the self-cleavage worked out at 0.0692. Next, GGCCGGCAUGGUCCCAGCCUCCUCGCUGGCGCCGGCUGGGCAACAUUCCGAGGGGACCGUCCCCUCGGUAAUGCCAAAUGGGACCCA [G74C G76A]: 0.208. Under GGCCGGCAUGGUCCCAGCCUCCUCGCUGGCCCCGGCUGGGCAACAUUCCGAGGGGACCGUCCCCUCGGUAAUGGCGAAUGGGACCUA [G31C C86U] stands 0.295; under GGCCGGCAUGGUCCCAGCCUCCUCGCUGGCGCCGGCUGGGCAACAUUCCGAGGGGACCGUUCCCUCGGUAAUGGCGAAUGCGACCCA [C61U G81C], 0.29. Under GGCCGGCAUAGUCCCAGCCUCCUCGCUGGCGCCGGCUGUGCAACAUUCCGAGGGGACCGUCCCCUCGGUAAUGGCGAAUGGGACCCA [G10A G39U] stands 0.293.

As to GGCCGGCAUGGUCCCAGCCUCCUCGCUGGCGCCGGCUGGGCAACAUUCCGAGGAGACCGUCCCCUCGUUAAUGGCGAAUGGGACCCA [G54A G68U], the self-cleavage was 0.641. Under GGCCGGCAUGCUCCCAGCCUCCUCGCUGGCGCCGGCGGGGCAACAUUCCGAGGGGACCGUCCCCUCGGUAAUGGCGAAUGGGACCCA [G11C U37G] stands 0.101; under GGCCGGCAUGGUCCCAGCCUCCACGCUGGCGCCGGCUGGGCAACAAUCCGAGGGGACCGUCCCCUCGGUAAUGGCGAAUGGGACCCA [U23A U46A], 0.623; under GGCCGGCAUGGUCCCAGACUCCUCGCUGGCGCCGGCUGGGCAACAUUCCGAGGGGACCGUCCCCUCGGUAAUGGCGAAUGGUACCCA [C18A G82U], 0.0723. Next, GGCCGGCAUGGUCCCAGCCUCGUCGCUGGCGCCGGCUGGGCAACAUUCCGAGGGGACCGUCCCCUCGGUAAUUGCGAAUGGGACCCA [C22G G73U]: 0; GGCCGGCAUGGUCCCAACCUCCUCCCUGGCGCCGGCUGGGCAACAUUCCGAGGGGACCGUCCCCUCGGUAAUGGCGAAUGGGACCCA [G17A G25C]: 0.158; GUCCGGCAUGGUCCCAGCCUCGUCGCUGGCGCCGGCUGGGCAACAUUCCGAGGGGACCGUCCCCUCGGUAAUGGCGAAUGGGACCCA [G2U C22G]: 0.0193. Under GGCCGGCAUGGUCCCAGCCUCCUCGCUGGCGCCGGCUGGGCAAAAUUCCGAGGGGACCGUCCCCUCGGUAAUGGCGAGUGGGACCCA [C44A A78G] stands 0.175; under GGCCGGCAUGGUCCCAGCCUCCUCGCUGGCGCCGGCUGGGCAACAUUCCGAGGGGACCGUGCCCUCGGUAAUGGUGAAUGGGACCCA [C61G C75U], 0.101. As to GGCCGGCAUGGUCCCAGCGUCCUCGCUGGCGCCGGCUGGGCAACAUUCCCAGGGGACCGUCCCCUCGGUAAUGGCGAAUGGGACCCA [C19G G50C], the self-cleavage is 0.0528. On to GGCCGGCAUGGUCCCAGCCUCCUCGCUGGCGCCGGCUGGGCAACAUUCCGAGGGGACCGUCCCCUCGCUAAUGGCUAAUGGGACCCA [G68C G76U], for which the self-cleavage worked out at 1.23. Next, CGCCGGCAUGGUCCCAGCCUCCUCGCUGGCGCCGGCUGGGCAACAUUCCGAGGUGACCGUCCCCUCGGUAAUGGCGAAUGGGACCCA [G1C G54U]: 0.396; GGCCGGCAUGGUCCCAGCCUCCUCGCUGGCGCCGGCCGGGCAACAUUCUGAGGGGACCGUCCCCUCGGUAAUGGCGAAUGGGACCCA [U37C C49U]: 0.928. Next, GGCCGACAUGGUCCCAGCCUCCUCGCUGGUGCCGGCUGGGCAACAUUCCGAGGGGACCGUCCCCUCGGUAAUGGCGAAUGGGACCCA [G6A C30U]: 0.432; GGGCGGCAUGGUCCCAGCCUCCUCGCUGGCGCCGGCUGGGCAACAUUCCGAGGAGACCGUCCCCUCGGUAAUGGCGAAUGGGACCCA [C3G G54A]: 0.683. Next, GGCCGGCAUGGUCCCAGCCUCCUCGCUCGCGCCGGCUGGGCAACAUUUCGAGGGGACCGUCCCCUCGGUAAUGGCGAAUGGGACCCA [G28C C48U]: 0.0978; GGCCGGCAUGGUCCCAGCCUCCUCGCGGGCGCCGUCUGGGCAACAUUCCGAGGGGACCGUCCCCUCGGUAAUGGCGAAUGGGACCCA [U27G G35U]: 0.277.

Turning to GGCCGGCAUGGUCCAAGCCUCCUCGCUGGCGCCGGCUGGGCAACAUUCCGAGCGGACCGUCCCCUCGGUAAUGGCGAAUGGGACCCA [C15A G53C], the self-cleavage came out at 0.674. Under GGCCGGCAUGGUCCCCGCCUCCUCGGUGGCGCCGGCUGGGCAACAUUCCGAGGGGACCGUCCCCUCGGUAAUGGCGAAUGGGACCCA [A16C C26G] stands 0.731; under GGCCGGCAUGGUCCCAGCCUCCUCGCUGGCGCCGGGUGGGCAACAUUCCGAGAGGACCGUCCCCUCGGUAAUGGCGAAUGGGACCCA [C36G G53A], 0.0959. Under GGCCGGCAUGGUCCCAGCCUCCUCGCUGGCGCCGGCUGGGCAACAUUCCUAGGGGACCGUCCCCUCGCUAAUGGCGAAUGGGACCCA [G50U G68C] stands 0.465. Regarding GGCCGGCAUGGUCCCAGCCUCCUCGCUGGCGCGGGCUGGGCAACAUUCCGAGGGGACCGUCCCCUCGGAAAUGGCGAAUGGGACCCA [C33G U69A], the self-cleavage amounted to 0.201.
